Assay results taken from the supplement of paper PMC9170038.

System: MS2 coat protein
Experiment: apparent KD of MS2 coat protein; designed switch direction (-1 OFF switch, 1 ON switch): -1; higher = weaker reporter binding
Summary of the method: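 SNAP-549-labelled MS2 coat protein was titrated, doubling from 0.7 or 1.5 nM to 3 µM, over designed RNA switches transcribed on Illumina chips by stalled E. coli RNA polymerase. Runs were done without input, with 200 uM small-molecule ligand, or with an oligonucleotide input. Apparent KD is the per-design median over clusters of curve-fitted normalised fluorescence.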

[1] = input ligand: microRNA oligo, concentration not stated
[2] = Eterna round: R95, input ligand: microRNA oligo, concentration not stated

Sequence	apparent KD of MS2 coat protein (input ligand: FMN 200 uM)	apparent KD of MS2 coat protein (input ligand: none)	apparent KD of MS2 coat protein [1]	apparent KD of MS2 coat protein [2]
UCCUUACUUGAGGAUCACCCAAGUCAGGAUAUACACCAGAAUAAAUCCCAGCCCUGGCGUAGAAGGGACGGGUG [Esesle] (Eterna round: R97, puzzle: Exclusion 1)	23 nM	25.1 nM		
UCGACGUCGUCAGGAUAUAGUCUUAAUGUCAUGCUUUUGUUCGUACAUGAGGAUCACCCAUGUGGCUAGAAGGGACUAAAGAUU [JR_ExcNG2_Sub015] (Eterna round: R96, puzzle: Exclusion NG 2)	12.3 nM	15.8 nM	10.1 nM	
UCGCCGCCCUUGGGCGGCGACAUGAGGAUCACCCAUGUCAAGCUUUUUGCUCGUUUUAUAGCCGGCCUUGGCCGGCA [Olib_3] (Eterna round: R97, puzzle: Sensor, turn-off variant 1)	27.9 nM	29.4 nM		
UCGCUGCGAGGAUAUACGUUUGCGCGUUUUCGUUUGCGCGUACAUGAGGAUCACCCAUGUAGAAGGCGCGCGGC [Apr-15 SS2-11] (puzzle: Exclusion 2)				12.2 nM
UCGCUGCGAGGAUAUACGUUUGCGCGUUUUCGUUUGCGCGUACAUGAGGAUCACCCAUGUAGAAGGCGCGCUGC [Apr-15 SS2-10] (puzzle: Exclusion 2)				13.3 nM
UCUCGAAGGCAAGGAUAUCCUACAUUGUUCUGGCCCGGGCAUGCUACAUGAGGAUCACCCAUGUGGGAGAAGGUGCGCCACGGC [Design 29] (Eterna round: R96, puzzle: Exclusion NG 2)	31.6 nM	43.1 nM	32.9 nM	
UCUCGCGGGCAAGGAUAUCCUACGUUGUUCUGGCCCGUGCAUGUUACAUGAGGAUCACCCAUGUGGGAGAAGGUGCGCCAGGGC [Design 37] (Eterna round: R96, puzzle: Exclusion NG 2)	51.3 nM	59.8 nM	36.7 nM	
UCUCGGACAGGAUAUCUGUCAUCUGACAUGAGGAUCACCCAUGUCCUCGCCGCCAACCCAAGAGAAGGGUCCCACA [Eternabot (L1) Solution 76] (Eterna round: R97, puzzle: Exclusion 5)	99.2 nM	120 nM		
UCUCGUUGGCAAGGAUAUCCUACAUUGUUCUGGCCCGGGCAUGCUACAUGAGGAUCACCCAUGUGGGAGAAGGUGCGCCACUGC [Design 25] (Eterna round: R96, puzzle: Exclusion NG 2)	95.5 nM	108 nM	67.6 nM	
UCUGGUCGAGGAUAUACAUGAGGAUCACCCAUGUAGAUCAACCAGCGAUAGCUGGAAUGUAGAAGGCGACCAGA [E3/5-A3] (Eterna round: R97, puzzle: Exclusion 3)	381 nM	30.4 nM		
UCUUAUUGAGGAUAUACAGAUUAUUACAUGAGGAUCACCCAUGUUCUUCAAUGUAUAUAUGUAGAAGGCAGAGGAA [Mat - Exclusion 5 - JL Mod - D11] (Eterna round: R97, puzzle: Exclusion 5)	112 nM	67.4 nM		
UCUUAUUGAGGAUAUACAGAUUAUUACAUGAGGAUCACCCAUGUUCUUCAAUGUAUAUAUGUAGAAGGCAGAGGAU [Mat - Exclusion 5 - JL Mod - D12] (Eterna round: R97, puzzle: Exclusion 5)	217 nM	68.6 nM		
UCUUUCAUUGUGAGGAUAUGCCCAAAUAAAAGCGGGCAGAAGGCACAUGAGGAUCACCCAUGUCCUGCGGUUUU [salish99_bmx4_r4_149] (Eterna round: R97, puzzle: Brourd's mod of Exclusion 4)	177 nM	40.7 nM		
UGAAUGUGAGGAUAUGGUGAGUAGUGCCAGAGCGCUGCUCACCAGAAGGCACAUGAGGAUCACCCAUGUACUUG [Mat - Exclusion 4 - Mod of JL - D18] (puzzle: Exclusion 4)				47.8 nM
UGAGCUACAGGAUAUACAAGGCGACCGUGAGGUCGAAGGUUACAUGAGGAUCACCCAUGUAGAAGGGUAGUUCU [Mat - Exclusion 2 - JL Mod - D15] (Eterna round: R97, puzzle: Exclusion 2)	130 nM	126 nM		
UGAGGACAUGAGGAUCACCCAUGUAAGGAUAUGCGGAGAGUUUGGAGAGGUUGAGGAGGCAGAAGGUACAGGAU [JR_Exclu1_Sub047] (puzzle: Exclusion 1)				49.2 nM
UGAUCACAUGAGGAUCACCCAUGUCAGGAUAUCGUCACUGGAGCCUCGGCUCCAGUGACGAGAAGGGACAUAAU [E1/3-A2] (Eterna round: R97, puzzle: Exclusion 1)	137 nM	253 nM		
UGAUCAGACCGAGGAUAUAUAUGUAGGACCCACGUGAGUGGGUCCAGUACAUGAGGAUCACCCAUGUAGAAGGCGGUCUGAUCU [JL ENG2 1.87] (Eterna round: R96, puzzle: Exclusion NG 2)	19.2 nM	15 nM	10.7 nM	

Sequence	apparent KD of MS2 coat protein (input ligand: FMN 200 uM)	apparent KD of MS2 coat protein (input ligand: none)	apparent KD of MS2 coat protein [1]	apparent KD of MS2 coat protein [2]
UGAUCUAGCGGAGGAUAUACAUGAGGAUCACCCAUGUAGAUAAGUGUACCGUAGUGCACUAUUGUGUAGAAGGCCGCUAGAUCU [JL ENG2 3.64] (Eterna round: R96, puzzle: Exclusion NG 2)	30.5 nM	11.9 nM	9.35 nM	
UGAUUGAUUAACAGAUUAUACAUGAGGAUCACCCAUGUAGGUCCUACGUGCCCUUUAUGCAGCUCGUCUUAUUCCCA [Sensor-V1 #70] (Eterna round: R97, puzzle: Sensor, turn-off variant 1)	53.6 nM	50 nM		
UGAUUGUUUACCAGGUUAUACAUGAGGAUCACCCAUGUAGAUCCUACGUGCGCGUUGUACCGCUCGUCUUAUUCCCA [Sensor-V1 #78] (Eterna round: R97, puzzle: Sensor, turn-off variant 1)	18.3 nM	18.9 nM		
UGCAGACGAGGAUAUAAAUUUAAAUACAUGAGGAUCACCCAUGUAUAAAUGUAUUUAAAUUUAGAAGGCGUCUGCU [E5/12-A4] (Eterna round: R97, puzzle: Exclusion 5)	500 nM	606 nM		
UGCAUGGUAGGAUAUACGGAGCAUUAGGGUUUGUUAUGUGGACAUGAGGAUCACCCAUGUAGAAGGGCCGUGCU [JL-ex2-2.16 mat747 mod] (puzzle: Exclusion 2)				32.6 nM
UGCAUGGUAGGAUAUACGGAGCAUUAGGGUUUGUUGUGUGGACAUGAGGAUCACCCAUGUAGAAGGGCCGUGCU [JL-ex2-2.17 mat747 mod] (puzzle: Exclusion 2)				35.5 nM
UGCAUGUCAGGAUAUAUUAGUACACUAGUCAGUCUAGGUGCGUAGAAGGGACAUGAGGAUCACCCAUGUGACAU [Eternabot (L2) Solution 1] (Eterna round: R97, puzzle: Exclusion 4)	143 nM	64.9 nM		
UGCCGAUGAGGAUAUACAUUGAAUAAGAUUCAUGUAAAACUACAUGAGGAUCACCCAUGUAGAAGGCAUUGGCU [Mat - Exclusion 2 - JL Mod - D69] (Eterna round: R97, puzzle: Exclusion 2)	25.7 nM	15.6 nM		
UGCCGUUGAGGAUAUACAUAGAAAUAGAUUCAUGUAAAACUACAUGAGGAUCACCCAUGUAGAAGGCAAUGGCU [Mat - Exclusion 2 - JL Mod - D51] (Eterna round: R97, puzzle: Exclusion 2)	128 nM	23.9 nM		
UGCCUAGCAGGAUAUGCUCGGGAUUACAUGAGGAUCACCCAUGUGACUGAUUGUUGUCUUGCAGAAGGGCUAGGGA [JL-EX5-4.05 ViennaUCT mod] (Eterna round: R97, puzzle: Exclusion 5)	443 nM	99.7 nM		
UGCCUUUGAGGAUAUACGUAGAAAUAGAUUCAUGUAAAACUACAUGAGGAUCACCCAUGUAGAAGGCAAGGGCU [Mat - Exclusion 2 - JL Mod - D48] (Eterna round: R97, puzzle: Exclusion 2)	164 nM	24 nM		
UGCGGUAGAGGAUAUACGUAGAAUUAGGUUCAUGUAAAACUACAUGAGGAUCACCCAUGUAGAAGGCUAUCGCU [JL-ex2-4.30 Eli mod] (Eterna round: R97, puzzle: Exclusion 2)	85.4 nM	21.2 nM		
UGCUACAUGAGGAUCACCCAUGUUAUUUGGGAUUUUUUAGGACAGGAUAUGAUUGUAUUGUUUUUUCAGAAGGGUCAUUACUUU [JR_ExcNG3_Sub013] (Eterna round: R96, puzzle: Exclusion NG 3)	368 nM	347 nM	316 nM	
UGCUAGUCAGGAUAUACGAACAUGUCAAAAGACGUGAAGGGACAUGAGGAUCACCCAUGUAGAAGGGACUAGCC [salish99_ex2_r3_008] (puzzle: Exclusion 2)				25.5 nM
UGGUGGAAGCAGGAUAUGCUAGAAGUGUAGAAUGCAGAAGGGCUAACAUGAGGAUCACCCAUGUAAGAGGUGUU [JR_E6_Sub052] (puzzle: Exclusion 6)				296 nM
UGGUGGUAGCAGGAUAUGCUUGUUGUGUAGUUUGCAGAAGGGCUAACAUGAGGAUCACCCAUGUAAGAGGUGUU [JR_E6_Sub054] (puzzle: Exclusion 6)				339 nM
UGUAAGCUAGGAUAUGCUUUGGGAAAGCAUUCCUUCGAUAAACUUGAGGAUCACCCAAGUAGAAGGAGCUUACU [salish99_ex2_r4_006] (Eterna round: R97, puzzle: Exclusion 2)	17.5 nM	11.5 nM		
UGUGUGAGACAGGAUAUGCCGGAUGAAAUGCAGGUAGAAGGGUCUACAUGAGGAUCACCCAUGUGGCCGGUUGG [Ex6 #75] (Eterna round: R97, puzzle: Exclusion 6)	18.9 nM	15.1 nM		
